# IntAct's records for PubMed 20133777
# B1: Receptor-type tyrosine-protein phosphatase T (Homo sapiens), O14522-1 (parent)
# chain: MASLAALALSLLLRLQLPPLPGARAQSAAGGCSFDEHYSNCGYSVALGTNGFTWEQINTWEKPMLDQAVPTGSFMMVNSSGRASGQKAHLLLPTLKENDTHCIDFHYYFSSRDRSSPGALNVYVKVNGGPQGNPVWNVSGVVTEGWVKAELAISTFWPHFYQVIFESVSLKGHPGYIAVDEVRVLAHPCRKAPHFLRLQNVEVNVGQNATFQCIAGGKWSQHDKLWLQQWNGRDTALMVTRVVNHRRFSATVSVADTAQRSVSKYRCVIRSDGGSGVSNYAELIVKEPPTPIAPPELLAVGATYLWIKPNANSIIGDGPIILKEVEYRTTTGTWAETHIVDSPNYKLWHLDPDVEYEIRVLLTRPGEGGTGPPGPPLTTRTKCADPVHGPQNVEIVDIRARQLTLQWEPFGYAVTRCHSYNLTVQYQYVFNQQQYEAEEVIQTSSHYTLRGLRPFMTIRLRLLLSNPEGRMESEELVVQTEEDVPGAVPLESIQGGPFEEKIYIQWKPPNETNGVITLYEINYKAVGSLDPSADLSSQRGKVFKLRNETHHLFVGLYPGTTYSFTIKASTAKGFGPPVTTRIATKISAPSMPEYDTDTPLNETDTTITVMLKPAQSRGAPVSVYQLVVKEERLQKSRRAADIIECFSVPVSYRNASSLDSLHYFAAELKPANLPVTQPFTVGDNKTYNGYWNPPLSPLKSYSIYFQALSKANGETKINCVRLATKAPMGSAQVTPGTPLCLLTTGASTQNSNTVEPEKQVDNTVKMAGVIAGLLMFIIILLGVMLTIKRRRNAYSYSYYLSQRKLAKKQKETQSGAQREMGPVASADKPTTKLSASRNDEGFSSSSQDVNGFTDGSRGELSQPTLTIQTHPYRTCDPVEMSYPRDQFQPAIRVADLLQHITQMKRGQGYGFKEEYEALPEGQTASWDTAKEDENRNKNRYGNIISYDHSRVRLLVLDGDPHSDYINANYIDGYHRPRHYIATQGPMQETVKDFWRMIWQENSASIVMVTNLVEVGRVKCVRYWPDDTEVYGDIKVTLIETEPLAEYVIRTFTVQKKGYHEIRELRLFHFTSWPDHGVPCYATGLLGFVRQVKFLNPPEAGPIVVHCSAGAGRTGCFIAIDTMLDMAENEGVVDIFNCVRELRAQRVNLVQTEEQYVFVHDAILEACLCGNTAIPVCEFRSLYYNISRLDPQTNSSQIKDEFQTLNIVTPRVRPEDCSIGLLPRNHDKNRSMDVLPLDRCLPFLISVDGESSNYINAALMDSHKQPAAFVVTQHPLPNTVADFWRLVFDYNCSSVVMLNEMDTAQFCMQYWPEKTSGCYGPIQVEFVSADIDEDIIHRIFRICNMARPQDGYRIVQHLQYIGWPAYRDTPPSKRSLLKVVRRLEKWQEQYDGREGRTVVHCLNGGGRSGTFCAICSVCEMIQQQNIIDVFHIVKTLRNNKSNMVETLEQYKFVYEVALEYLSSF
# Variants of: B1
# Settings: with paxi_human PXN
row,effect of a mutation on the interaction,Variant
1,increasing interaction,D1074A;C1106S
2,increasing interaction,D1074A
